Measured values published in article PMC11284795.

Each substance was assayed against human serum albumin (HSA) (human) (UniProt P02768).

Chain of FGF21 analog 22: Ala[Gln121, Leu168, Cys180]FGF21 with a C16 fatty diacid side chain on 180C (Q9NSA1 other isoform, or with tags, fused parts or gaps): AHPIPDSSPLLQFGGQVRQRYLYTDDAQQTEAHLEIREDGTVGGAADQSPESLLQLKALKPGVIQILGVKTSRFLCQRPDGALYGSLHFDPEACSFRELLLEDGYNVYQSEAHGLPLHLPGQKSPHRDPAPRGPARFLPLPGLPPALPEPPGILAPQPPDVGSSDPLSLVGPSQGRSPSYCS
Chain of FGF21 analog 6 (-1A, 121Q, 167C, 168L; cysteamine on 167C) (Q9NSA1 other isoform, or with tags, fused parts or gaps): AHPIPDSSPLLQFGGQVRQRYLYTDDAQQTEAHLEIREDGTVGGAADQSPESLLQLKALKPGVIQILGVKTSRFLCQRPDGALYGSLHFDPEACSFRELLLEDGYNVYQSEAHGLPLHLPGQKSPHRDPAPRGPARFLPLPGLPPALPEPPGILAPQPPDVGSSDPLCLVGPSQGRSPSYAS
Chain of FGF21 analog 2 (-1A) (Q9NSA1 28-209): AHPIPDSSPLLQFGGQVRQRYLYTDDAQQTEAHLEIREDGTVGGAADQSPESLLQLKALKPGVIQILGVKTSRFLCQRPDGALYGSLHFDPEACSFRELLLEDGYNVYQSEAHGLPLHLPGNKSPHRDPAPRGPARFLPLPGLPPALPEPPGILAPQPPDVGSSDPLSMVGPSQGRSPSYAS
Chain of FGF21 analog 3 (-1A, 121Q) (Q9NSA1 28-209 N149Q): as the sequence (Q9NSA1 28-209) above, with N122Q counted along it
Chain of FGF21 analog 5 (-1A, 71C, 121Q, 168L; C18 fatty diacid on 71C) (Q9NSA1 other isoform, or with tags, fused parts or gaps): as the sequence (Q9NSA1 28-209) above, with S72C, N122Q, M169L counted along it
Chain of Met-FGF19 (25) (O95750 other isoform, or with tags, fused parts or gaps): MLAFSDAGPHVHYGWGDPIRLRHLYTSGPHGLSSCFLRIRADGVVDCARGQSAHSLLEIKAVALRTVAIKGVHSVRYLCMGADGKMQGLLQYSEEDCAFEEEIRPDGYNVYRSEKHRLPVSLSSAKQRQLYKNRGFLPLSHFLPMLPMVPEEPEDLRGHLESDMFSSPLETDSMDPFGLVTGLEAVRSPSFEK
Chain of FGF21 (0) (Q9NSA1 29-209): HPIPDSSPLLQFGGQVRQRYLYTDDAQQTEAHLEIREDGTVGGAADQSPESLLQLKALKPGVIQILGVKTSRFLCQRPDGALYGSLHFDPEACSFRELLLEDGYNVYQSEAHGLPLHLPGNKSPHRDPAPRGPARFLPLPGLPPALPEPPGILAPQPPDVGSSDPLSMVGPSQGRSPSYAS
Chain of FGF21 analog 8 (-1A, 121Q, 168L, 171C; cysteamine on 171C) (Q9NSA1 other isoform, or with tags, fused parts or gaps): as the sequence (Q9NSA1 28-209) above, with N122Q, M169L, P172C counted along it
Chain of FGF21 analog 12 (-1A, 121Q, 168L, 176C; cysteamine on 176C) (Q9NSA1 other isoform, or with tags, fused parts or gaps): as the sequence (Q9NSA1 28-209) above, with N122Q, M169L, S177C counted along it
Chain of FGF21 analog 14 (-1A, 121Q, 168L, 179C; cysteamine on 179C) (Q9NSA1 other isoform, or with tags, fused parts or gaps): as the sequence (Q9NSA1 28-209) above, with N122Q, M169L, Y180C counted along it
Chain of FGF21 analog 19 (-1A, 121Q, 168L, 181C; cysteamine on 181C) (Q9NSA1 other isoform, or with tags, fused parts or gaps): as the sequence (Q9NSA1 28-209) above, with N122Q, M169L, S182C counted along it
Chain of FGF21 analog 9 (-1A, 121Q, 168L, 172C; cysteamine on 172C) (Q9NSA1 other isoform, or with tags, fused parts or gaps): as the sequence (Q9NSA1 28-209) above, with N122Q, M169L, S173C counted along it
Chain of cysteamine protected Ala[Gln121, Leu168, Cys180]FGF21 (16) (Q9NSA1 other isoform, or with tags, fused parts or gaps): as the sequence (Q9NSA1 28-209) above, with N122Q, M169L, A181C counted along it
Chain of FGF21 analog 7 (-1A, 121Q, 168L, 170C; cysteamine on 170C) (Q9NSA1 other isoform, or with tags, fused parts or gaps): as the sequence (Q9NSA1 28-209) above, with N122Q, M169L, G171C counted along it
Chain of FGF21 analog 11 (-1A, 121Q, 168L, 174C; cysteamine on 174C) (Q9NSA1 other isoform, or with tags, fused parts or gaps): as the sequence (Q9NSA1 28-209) above, with N122Q, M169L, G175C counted along it
Chain of FGF21 analog 10 (-1A, 121Q, 168L, 174C; C18 fatty diacid on 174C) (Q9NSA1 other isoform, or with tags, fused parts or gaps): as the sequence (Q9NSA1 28-209) above, with N122Q, M169L, G175C counted along it
Chain of FGF21 analog 13 (-1A, 121Q, 168L, 178C; cysteamine on 178C) (Q9NSA1 other isoform, or with tags, fused parts or gaps): as the sequence (Q9NSA1 28-209) above, with N122Q, M169L, S179C counted along it

Substance | potency (EC50) of ERK phosphorylation in HEK293/human KLB cells with 0.1 and 1.5% HSA: 47 and 173 nM (3.8 nM without HSA) [nM] | potency (EC50) of ERK phosphorylation in HEK293/human KLB cells with 0.1, 1.0 and 1.5% HSA: 4.2, 52 and 92 nM (3.5 nM without HSA) [nM] | potency (EC50) of ERK phosphorylation in HEK293/human KLB cells with 0.1, 1.0 and 1.5% HSA: 4.0, 5.8 and 8.6 nM (5.2 nM without HSA); no HSA-dependent reduction of potency [nM] | potency (EC50) of ERK phosphorylation in HEK293/human KLB cells with 0.1 and 1.0% HSA: 3.7 and 5.2 nM (5.8 nM without HSA); no HSA-dependent reduction of potency [nM]
FGF21 analog 23 (-1A, 121Q, 168L, 180C; C20 fatty diacid on 180C) (from UniProt Q9NSA1 29-209) (ligand) | 173 | – | – | –
FGF21 analog 22: Ala[Gln121, Leu168, Cys180]FGF21 with a C16 fatty diacid side chain on 180C (from UniProt Q9NSA1 29-209) (ligand) | – | 92 | – | –
FGF21 analog 21 (-1A, 121Q, 168L, 180C; C14 fatty diacid on 180C) (from UniProt Q9NSA1 29-209) (ligand) | – | – | 8.6 | –
FGF21 analog 20 (-1A, 121Q, 168L, 180C; C12 fatty diacid on 180C) (from UniProt Q9NSA1 29-209) (ligand) | – | – | – | 5.2

The substances below were run against human beta-klotho (KLB) on HEK293 cells (human) (UniProt Q86Z14).

Substance | potency (EC50) of ERK phosphorylation in HEK293 cells transfected with human KLB, 0% HSA [nM]
FGF21 analog 23 (-1A, 121Q, 168L, 180C; C20 fatty diacid on 180C) (from UniProt Q9NSA1 29-209) (ligand) | 3.8
FGF21 analog 22: Ala[Gln121, Leu168, Cys180]FGF21 with a C16 fatty diacid side chain on 180C (from UniProt Q9NSA1 29-209) (ligand) | 3.5
FGF21 analog 21 (-1A, 121Q, 168L, 180C; C14 fatty diacid on 180C) (from UniProt Q9NSA1 29-209) (ligand) | 5.2
FGF21 analog 20 (-1A, 121Q, 168L, 180C; C12 fatty diacid on 180C) (from UniProt Q9NSA1 29-209) (ligand) | 5.8

Target: human beta-klotho (KLB) on HEK293 cells (human) (UniProt Q86Z14)
Remark: another data set of the same source

Substance | potency (EC50) of ERK phosphorylation in HEK293 cells transfected with human KLB, without HSA [nM] | potency (EC50) of ERK phosphorylation in HEK293 cells transfected with human KLB, without HSA (with 0.1 and 1.0% HSA: 1.8 and 2.1 nM, Table 3) [nM]
FGF21 analog 8 (-1A, 121Q, 168L, 171C; cysteamine on 171C) (from UniProt Q9NSA1 29-209) (ligand) | 2.2 | –
FGF21 analog 13 (-1A, 121Q, 168L, 178C; cysteamine on 178C) (from UniProt Q9NSA1 29-209) (ligand) | 90 | –
FGF21 analog 11 (-1A, 121Q, 168L, 174C; cysteamine on 174C) (from UniProt Q9NSA1 29-209) (ligand) | 6.1 | –
FGF21 analog 5 (-1A, 71C, 121Q, 168L; C18 fatty diacid on 71C) (from UniProt Q9NSA1 29-209) (ligand) | 4.8 | –
FGF21 analog 2 (-1A) (from UniProt Q9NSA1 29-209) (ligand) | 1.3 | –
FGF21 analog 3 (-1A, 121Q) (from UniProt Q9NSA1 29-209) (ligand) | 1 | –
FGF21 analog 12 (-1A, 121Q, 168L, 176C; cysteamine on 176C) (from UniProt Q9NSA1 29-209) (ligand) | 160 | –
FGF21 analog 7 (-1A, 121Q, 168L, 170C; cysteamine on 170C) (from UniProt Q9NSA1 29-209) (ligand) | 3.4 | –
FGF21 analog 6 (-1A, 121Q, 167C, 168L; cysteamine on 167C) (from UniProt Q9NSA1 29-209) (ligand) | 1.4 | –
FGF21 analog 9 (-1A, 121Q, 168L, 172C; cysteamine on 172C) (from UniProt Q9NSA1 29-209) (ligand) | 3.3 | –
FGF21 analog 10 (-1A, 121Q, 168L, 174C; C18 fatty diacid on 174C) (from UniProt Q9NSA1 29-209) (ligand) | 1.5 | –
FGF21 analog 14 (-1A, 121Q, 168L, 179C; cysteamine on 179C) (from UniProt Q9NSA1 29-209) (ligand) | 67 | –
cysteamine protected Ala[Gln121, Leu168, Cys180]FGF21 (16) (from UniProt Q9NSA1 29-209) (ligand) | – | 2.5
FGF21 analog 19 (-1A, 121Q, 168L, 181C; cysteamine on 181C) (from UniProt Q9NSA1 29-209) (ligand) | 24 | –
FGF21 (0) (from UniProt Q9NSA1 29-209) (ligand) | 1 | –

The substances below were run against FGFR4/KLB: ectodomain of human FGFR4 fused to Fc, with human beta-klotho (human) (UniProt P22455).

Substance | potency EC50 of ERK phosphorylation in Ba/F3 cells overexpressing human KLB and FGFR4 (chimera with the kinase domain of FGFR1c), 0% HSA [nM]
Met-FGF19 (25) (from UniProt O95750 25-216) (ligand) | 2.3
